Assay: yeast display, Sf9 membrane polyspecificity reagent, FACS + sequencing; frameworks hold sequencing errors
Method in brief: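 Galactose induction of a Saccharomyces cerevisiae BJ5465 synthetic nanobody display library ran 36–48 hours. The cells were then stained for 1 hour at 4 °C with 10% biotinylated, detergent-solubilized Sf9 membrane reagent, pulled down on streptavidin microbeads and FACS-sorted into low and high (top ~1%) gates on expression and reagent-binding fluorescence. Labels for polyreactivity follow the gate of origin.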

Row | Sequence | polyreactivity (PSR sort gate)
1 | QVQLVESGGGLVQAGGSLRLSCAASGFTFRRYAMGWYRQAPGKERELVAAISTSGGRTYYADSVKGRFTISRDYAKITVYLQMNSLKPEDSAVYDCNAAGGYRTSPSDYWGQGTQVTVSS | high polyreactivity
2 | QVQLVESGGGLVQAGGSLRLSCAASGFTFRSNAMGWYRQAPGKERELVAAISYSGDSTYYADSVKGRFTISRDTAKNTVYLQMNSLKPEDTAVYYCAADGYDQWGRVGVYLIWTSYDYWGQGTQVTVSS | high polyreactivity
3 | QVQLVESGGGLVQAGGSLRLSCAASGFTFRSNAMGWYRQAPGKERELVAAISYSGGDTYYADSVKGRFTISRDNAKNTVFLQMNSLKPEDTAVYYCAADDPASPLGEYWGQGTQVTVSS | low polyreactivity
4 | QVQLVESGGGLVQAGGSLRLSCAASGFTFRSNVMGWYRQAPRKERELVAAIRWSGGSTYYADSVKGRFTISRDNAMNTVYLQMNSLKPDDTAVYYCNARIYRSGYKFNYWGQGTQVTVSS | high polyreactivity
5 | QVQLVESGGGLVQAGGSLRLSCAASGFTFRTYAMGWYRQAPGKERELVAGISQGGGSTYYADSVKGRFTISRDNAKNTVYLQMKSLKTEVTAVYYCAKARNSNARFGYWGQGTQVTVSS | high polyreactivity
6 | QVQLVESGGGLVQAGGSLRLSCAASGFTFRVNAMGWYRQAPGKERELVARISSSGGITYYADSVKGRFTISRDNAKNTVYLQMNSLKPEDTAVYYCAKEVYSGYSTRARSRYYEYYYWGQGTQVTVSS | high polyreactivity
7 | QVQLVESGGGLVQAGGSLRLSCAASGFTFRVNAMGWYRQAPGKESELVAAISSGGGITYYADSVKGRFTISRDNAKNTVYLQMNSLKPEDTAVYYCAARENRYLERDYWGQGTQVTVSS | low polyreactivity
8 | QVQLVESGGGLVQAGGSLRLSCAASGFTFRVYAMGWYRHAPGKERELVAAITKRGGSTYYADSVKGRFTISRDNAKNTVYLQMNSLKPEDTAVYYCAAVNVRHFSYWGQGTQVTVSS | high polyreactivity
9 | QVQLVESGGGLVQAGGSLRLSCAASGFTFRVYAMGWYRQAPGKERELVAAISKSGGSTYYADSVKGRFTISRDNAKNTVYLQMNSLKPEDTAVYYCAKVSQVRGFYYWGQGTQVTVSS | high polyreactivity
10 | QVQLVESGGGLVQAGGSLRLSCAASGFTFRVYAMGWYRQAPGKERELVAAISSGGSTNYADSVKGRFTISRDNAKNTVYLQMNSLKPEDTAVYYCAARTYRWYGPGSYGYWGQGTQVTVSS | high polyreactivity
11 | QVQLVESGGGLVQAGGSLRLSCAASGFTFRVYAMGWYRQAPGKERELVAAITKRGGSTYYADSVRGRFTISRDNAKNTVYLQMNSLKPEDTAVYYCATENTPHYASHGYWGQGTQVTVSS | high polyreactivity
12 | QVQLVESGGGLVQAGGSLRLSCAASGFTFRWYAMGWYRQAPGKERELVAAITYRGGRTYYADSVKGRFTISRDNAKNTVYLQMNSLKPEDTAVYYCAAKLSLNGRYDYWGQGTQVNVSS | high polyreactivity
13 | QVQLVESGGGLVQAGGSLRLSCAASGFTFRWYAMRWYRQAPGKERELVADITRSGDTNYAYSVKGRFTISRDNAKNTVYLQMKSQKPEDTAVYSCAKDWAYRRHWVGFYYWGQGTQVTVSA | low polyreactivity
14 | QVQLVESGGGLVQAGGSLRLSCAASGFTFRWYTMGWYRQAPGKERELVASIDWSGGSTYYADSVKGRFTITRDNAKNTVYLQMNSLKAEDTAVYYCNAGSDIFWSASTYGYWGQGTQVTVSS | high polyreactivity
15 | QVQLVESGGGLVQAGGSLRLSCAASGFTFRYNAMGWYRQAPGKERELVAAISRSGGRTYYADSVKGRFTISRDNAKNTVYLQMNSLKPEDTAVYYCAAVAARITGYGYWGQGTQVTVSS | high polyreactivity
16 | QVQLVESGGGLVQAGGSLRLSCAASGFTFRYYAMGWYRQAPGKERELVAAIRRGGTTNYADSVKGRFTISRDNAKNTVYLQMKSLKPEDTAVYYCNAGRGYSVWASIYNSRPFDYWGQGTQVTVSS | high polyreactivity
17 | QVQLVESGGGLVQAGGSLRLSCAASGFTFRYYAMGWYRQAPGKERELVAAISSGGRTNYADSVKGRFTISRDNAKNTVYLQMNSLKPEDTAVYYCAKAQYYYIGDYDYWGQGTQVTVSS | high polyreactivity
18 | QVQLVESGGGLVQAGGSLRLSCAASGFTFRYYAMGWYRQAPGKERELVAGISWRGGSTNYADSVKGRFTISRDNAKNTVYLQMNSLKPEDTAVYYCNAVSYSFPIHRVRPTWYDYWGQGTQVTVSS | high polyreactivity
19 | QVQLVESGGGLVQAGGSLRLSCAASGFTFRYYAMGWYRQAPGKVRELVASITGGGRTYYADSVKGRFTISRDNAKNTVYLQMNSLKPEDTAVYYCATLVAYRLGSGYDSWGQGTQVTVSS | high polyreactivity
20 | QVQLVESGGGLVQAGGSLRLSCAASGFTFRYYSMGWYRQAPGKERELVAAISSGGSTKYADSVKGRFTISRDNAKNTVYLQMNSLKPEDTAVYYCAARVVDGAQPRYVVIINTRYYWGQGTQVTVSS | high polyreactivity
21 | QVQLVESGGGLVQAGGSLRLSCAASGFTFRYYVMGWYRQAPGKEGELVAAISWSGGTTYYADSVKGRFTISRDNAKNTVYLQMNSLKPEDTAVYYCAADVYLNRRQRMYFWGQGSQVTVSS | high polyreactivity
22 | QVQLVESGGGLVQAGGSLRLSCAASGFTFSAYAMGWYRQAPGKERELVAAIRSSDITYYADSVKGRFTISRDNAKNTVYLQMNSLKPEDTAVYYCAADLGDYYLYYDYEYWGQGTQVTVSS | high polyreactivity

Row | Sequence | polyreactivity (PSR sort gate)
23 | QVQLVESGGGLVQAGGSLRLSCAASGFTFSAYAMGWYRQAPGKERELVAAISRRGGSTYYADSVKGRFTISRDTAKNTVYLQMNSVKPEDTAVYYCATDYPPGYDYWGQGTQVSVSS | high polyreactivity
24 | QVQLVESGGGLVQAGGSLRLSCAASGFTFSAYAMGWYRQAPGKERELVAAITLRGGSTYYADSVKGRFTISRDNAKNTVYLQMNSLKPEDTAVYYCNADRWTRTEEEVDYWGQGTQVTVSS | low polyreactivity
25 | QVQLVESGGGLVQAGGSLRLSCAASGFTFSAYTMGWYRKAPGKERELVAAISWGGGSTFYADSVKGRFTISRDNAKNTVYLQMNSLKPEDTAVYYCNKQYVHPYDYWGQGTQVTLSS | high polyreactivity
26 | QVQLVESGGGLVQAGGSLRLSCAASGFTFSDYVMGWYRQAPGKERELVAVITSGSSTYYADSVKGRFTISRDNAKNTVYLQMNSLKPEDTAVYYCNADPDDGYFSDFDYWGQGTQVTVSS | low polyreactivity
27 | QVQLVESGGGLVQAGGSLRLSCAASGFTFSEYVMGWYRQAPGKERELVAVITSGSSTYYADSVKGRFTISRDNAKNTVYLQMNSLTPEDTAVYYCAAESYFFSPRTREKFDYWGQGTQVTVSA | low polyreactivity
28 | QVQLVESGGGLVQAGGSLRLSCAASGFTFSFYAIGLYRQATVKEREVVAAISWSGGSTYYADSVKGRFTISRDNAKNTVYLQMNSLKPEDTAVYFCAAKLLYGGRNGYWGQGTQVTVSS | high polyreactivity
29 | QVQLVESGGGLVQAGGSLRLSCAASGFTFSFYAMGWYRQAPGKERELVAAIDRSGGSTYYADSVKGRFTISRDNAKNTVYLQMNSLKPEDTAVYYCAATVFYGYYYWGQGTQVTVSS | high polyreactivity
30 | QVQLVESGGGLVQAGGSLRLSCAASGFTFSFYAMGWYRQAPGKERELVAAITSRGTSTYYADSVKGRFTISRDNAKNTVYLQMNSLKPEDTEVYYCAKLLPRGQWPYDYWGQGTQVTVSS | high polyreactivity
31 | QVQLVESGGGLVQAGGSLRLSCAASGFTFSHNAMGWSRQAPGKERELVAGINGSGGSTYYADSVKGRFTISRDNAKNTFYLQMNSLKPEDTAVYYCSKDGSNRLALPAWDYNYWGQGTQVTVSS | low polyreactivity
32 | QVQLVESGGGLVQAGGSLRLSCAASGFTFSHYAMGLSRQAPGKERELVAAITWSGGSTYYADSVKGRFTISRDNAKNTVYLQMKSLKPEDTAVYYCIALVIARNIEMDYWGQGTQVTVSS | high polyreactivity
33 | QVQLVESGGGLVQAGGSLRLSCAASGFTFSHYAMGWYRQAPGKEMELVAAITWSGGSTYYADSVKGRFTISRDNAKNTVYLQMNSLKPEDTAVYYCAAESYLDGGDYWGQGTQVTVSS | high polyreactivity
34 | QVQLVESGGGLVQAGGSLRLSCAASGFTFSKYAMGLYRQAPGKERELVAAITRRGSSTYYADSVKGRFTLSRDNAKNTVYLQMNSLKPEDTAVYYCNAPRPNGYLGEDNYWGQGTKVTVSS | high polyreactivity
35 | QVQLVESGGGLVQAGGSLRLSCAASGFTFSKYAMGWYRQAPGKERELVAAISRSAGSTYYADSVKGRFTISRDNAKNTVYLQMNSLKPEDNAVYYCARDNPRSPSGYNYWGQGSQVTVSS | high polyreactivity
36 | QVQLVESGGGLVQAGGSLRLSCAASGFTFSKYAMGWYRQAPGKERELVAAITRRGSSTYYADSVKGRFTISRDNAKNTVYLQMNSLKPEDTAVYYCNAPRPNGYLGEDNYWGQGTQVTVSS | high polyreactivity
37 | QVQLVESGGGLVQAGGSLRLSCAASGFTFSKYAMGWYRQAPGKERELVASIDDGGSTNYADSVKGRFTISRDNAKNTVYLQKNSLKPEDTAVYYCNASYPTGYWYYVIVQYDYWGQGTQVTVSS | low polyreactivity
38 | QVQLVESGGGLVQAGGSLRLSCAASGFTFSKYAMGWYRQAPVKERELVATITRGGNTYYADSVKGRFTISRDNAKNTVYLQMNSLKPEDTAVYYCNTGRRNRLYDYDYWGQVTQVTVSS | high polyreactivity
39 | QVQLVESGGGLVQAGGSLRLSCAASGFTFSKYTMGWYRQAPGKERELVAAITSGGSTYYADSVKGRFTISRDNAKNTVYLQMNSLKPEDTAVYYCNAESRHVFEDEYWGQGTQVTVSS | low polyreactivity
40 | QVQLVESGGGLVQAGGSLRLSCAASGFTFSLYGMGWYRQAPGKERELVAAIRSGGSRNYADSVKGRFTISRDNAKNTVYLQMNSLKPEDTAVYYCATDIHSVHNNRDKHDYDYWGQGTQVTVSS | low polyreactivity
41 | QVQLVESGGGLVQAGGSLRLSCAASGFTFSLYGMGWYRQAPGKERELVAAIRSGGSTNYADSVKGRFTISRDNAKNTVYLQMNSLKPEDTAVYYCATDIHSVHNNRDKHDYDYWGQGTQVTVSS | low polyreactivity
42 | QVQLVESGGGLVQAGGSLRLSCAASGFTFSLYTKGWYRQATGKERELVADISDGGITNYADSVKGRFTISRDNAKNTVYLQMHSLKPEDTAVYYCAADYQFLFFWNLFYEDYDYWGQGTQVTVSS | high polyreactivity
43 | QVQLVESGGGLVQAGGSLRLSCAASGFTFSQYVMGWSRQAPGKERELVASITGKGGSTRYADSVKGRFTISRDNAKNTVYLQMNSLKQEDTAVYYCAARYVYFRWGSFDYWGQGTQVTVSS | high polyreactivity

Source: the nanobody polyreactivity screen of Harvey et al. (2022)
